Literature values as cited in PMC8395526.

Target: erbB2 (Homo sapiens) (UniProt P04626)
Assay: SPR

Substance: erbB2-SbdIV subdomain IV (from UniProt P04626)
- Kd: 1890 nM
